These results are taken from patent US20210139568A1 (AXON NEUROSCIENCE, published 2021).

Where no end group is shown, it is not given here. [ ]: non-standard residue; d: D form. pT = C[C@@H](OP(=O)(O)O)[C@H](N)C(=O)O

The target of assay [1] is T1, monoclonal antibody DC2E2.
T1 construct: Used as hybridoma supernatant or Protein G purified; biotinylated as detector in the digital ELISA
Kind of assay: competition ELISA, peptide 0.3-200 µM pre-incubated with DC2E2, plates coated with tau 1-242. As to the method: (§1) The plates were washed 4 times with PBS/Tween 20 (0.1% v/v), and blocked with PBS/Tween 20 for 2 h at 25° C. Peptides were separately dissolved in PBS at a final concentration of 5 mM. Serial dilutions (2,5-fold) of the peptides in PBS/Tween 20 were prepared in polypropylene plates with conical well bottom (Greiner, #651201) (concentration range 200 μM, 32 μM, 12.8 μM, 5.1 μM, 2 μM, 0.8 μM, and 0.3 μM). 60 μl of each dilution were added per well. Purified DC2E2 was diluted to a concentration of 0.6 μg/ml in PBS/Tween 20 and 60 μl of this diluted antibody was mixed with each serial dilution of peptides resulting in 120 μl mixtures with […] of antibody/60μl containing each respective test peptide at a concentration of 200 μM, 32 μM, 12.8 μM, 5.1 μM, 2 μM, 0.8 μM, and 0.3 μM. The antibody/peptide mixtures were incubated for 1 hr at 25° C. on a rotating platform set to 250 rpm. […] The plates were washed 4× times with PBS/Tween 20 and incubated for 1 hr at 25° C. on a rotating platform (set to 250 rpm) with 50 μl of Polyclonal Goat Anti-Mouse Immunoglobulins/HRP (Dako, #P0447) diluted 1:1000 in PBS/Tween 20. The plates were washed 4× times with PBS/Tween and then incubated with 50 μl/well of TMB one solution (Kem-En-Tec Diagnostics) as a peroxidase substrate. The reaction was stopped by adding 50 μl of 2 M H₂SO₄ (Merck). Absorbance was measured at 450 nm using a Powerwave HT (Bio-Tek).
On the technique in general: In an ELISA, binding on a coated surface is turned into a signal by an enzyme label.

The target of assay [2] is T2, monoclonal antibody DC2E7.
T2 construct: also called DC217 (apparent misprint)
T2 sequence (VL, as listed by the source): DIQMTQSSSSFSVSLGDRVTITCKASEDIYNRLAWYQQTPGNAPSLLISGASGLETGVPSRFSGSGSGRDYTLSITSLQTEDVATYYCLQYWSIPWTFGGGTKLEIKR
Kind of assay: competition ELISA, peptide pre-incubated with DC2E7. Here is the method: In order to examine the effect of residues in the region of DC2E7 epitope on antibody binding, synthetic peptides of different lengths carrying different phospho-sites were analyzed in competitive ELISA. […] Each synthetized peptide contained phospho-site(s) located around the residue Thr217, except of unphosphorylated peptide tau 201-229 (used as negative control).
ELISA plates (Nunc Medisorp, Thermo Scientific, Denmark) were coated overnight at 37° C. with 50 μl/well of PHF-tau, diluted 200× in PBS. The coated plates were washed 5 times with PBS/Tween 20 (0.05% v/v), and blocked with PBS/Tween 20 for 1 h at 25° C. Each of the peptides was separately dissolved in PBS at a final concentration of 1 mM. Serial dilutions (2.5×) of peptides in PBS/Tween 20 were prepared in polypropylene microtiter plates with conical well bottom (Greiner) within the concentration range of 200 μM; 80 μM; 32 μM; 12.8 μM; 5.12 μM; 2.048 μM; 0.8192 μM; 0.32768 μM). The monoclonal antibody DC2E7 was diluted to a concentration of 0.6 μg/ml in PBS and 60 μl of this diluted antibody was added into each well to serial dilution of peptides resulting in 120 μl/well of mixture. The antibody/peptide mixtures were incubated for 1 hr at 25° C. on a rotating platform set to 230 rpm.

For assay [3], the target named is unphosphorylated tau protein (UniProt P10636-8 1-441, limits assumed). Kind of assay: ELISA.
Sequence of unphosphorylated tau protein (P10636 other isoform, or with tags, fused parts or gaps limits assumed): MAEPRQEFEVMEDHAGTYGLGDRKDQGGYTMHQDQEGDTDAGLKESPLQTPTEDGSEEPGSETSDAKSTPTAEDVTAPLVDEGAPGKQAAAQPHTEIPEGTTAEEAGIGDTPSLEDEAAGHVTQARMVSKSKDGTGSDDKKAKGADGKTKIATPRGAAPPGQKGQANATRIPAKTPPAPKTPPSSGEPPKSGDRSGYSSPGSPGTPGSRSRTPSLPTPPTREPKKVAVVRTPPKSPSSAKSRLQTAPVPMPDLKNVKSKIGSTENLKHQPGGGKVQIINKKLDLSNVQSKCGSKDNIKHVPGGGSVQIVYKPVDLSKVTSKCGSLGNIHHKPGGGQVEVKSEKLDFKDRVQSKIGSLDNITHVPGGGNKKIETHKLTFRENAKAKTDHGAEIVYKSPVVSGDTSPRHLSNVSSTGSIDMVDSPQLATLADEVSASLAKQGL
For assay [4], the target named is T1, monoclonal antibody DC2E2. Kind of assay: competition ELISA, peptide pre-incubated with DC2E2, plates coated with tau 1-242. Here is the method: as §1

T1 sequence (VL, as listed by the source): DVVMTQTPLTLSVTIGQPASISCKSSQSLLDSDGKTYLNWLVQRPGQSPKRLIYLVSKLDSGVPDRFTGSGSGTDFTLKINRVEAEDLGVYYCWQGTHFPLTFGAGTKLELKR

Consider GQKGQANATRIPAKTPPAPKTPPSSGEPPK [synthetic peptide tau 161-190], for which the binding result in assay [1] is “binds”.

As for SR[pT]PSLP[pT]PPT [synthetic phosphopeptide tau 210-220/pT212/pT217], the binding result in assay [2] is “no binding (tested: peptide up to 200 µM)”.

Consider SR[pT]PSLP[pT]P [synthetic phosphopeptide tau 210-218/pT212/pT217], for which, in assay [2], the binding result is “no binding (tested: peptide up to 200 µM)”.

B1: antibody DC807 (antibody, V domains shown)
VH: EVKLVESGGGLVKPGGSLKLSCAASGFTFSNYAMSWVRQNPEKRLEWVASISSGGTIYSPDSVKGRFTISRDNGRNILYLQMSSLRSEDTAMYSCARVNYDYGYAMDYWGQGTSVTVS
VL: DAVMTQTPLSLPVSLGDQASISCRSSQSLENSNGNTYLNWYLQKPGQSPQLLIYRVSNRFSGVLDRFSGSGSGTDFTLKISRVEAEDLGVYFCLQVTHVPWTFGGGTKLEIKR
notes: Mouse monoclonal antibody
Turning to B1, the binding result in assay [3] is recorded as “no binding”.

B2: antibody DC149 (antibody, V domains shown)
VH: DVQLVESGGGLVQPGGSRKLSCAASGFTLSSFGMHWVRQAPEKGLEWVAYISSGSSTIYYADTVKGRFTISRDNPKNILFLQMTSLRSEDTAIYYCSRRLDYWGQGTSVTVS
VL: DIVITQDELSNPVTSGESVSISCRSSKSLLYKDGKTYLNWFLQRPGQSPQLLIYLMSTRASGVSDRFSGSGSGTDFTLEISRVKAEDVGVYYCQQFVEYPLTFGTGTKLELQR
notes: Mouse monoclonal antibody
As for B2, the binding result in assay [3] is recorded as “no binding”.

With SR[pT]PSLP[pT]PP [synthetic phosphopeptide tau 210-219/pT212/pT217], in assay [2], the binding result was “no binding (tested: peptide up to 200 µM)”.

As for TPPSSGEPPKSGDRSGYSSPGSPGTPGSRS [synthetic peptide tau 181-210], the binding result in assay [4] is on record as “no binding (tested: peptide up to 200 µM)”.

On to KAKGADGKTKIATPRGAAPPGQKGQANATR [synthetic peptide tau 141-170], for which the binding result in assay [4] is given as “no binding (tested: peptide up to 200 µM)”.

On to IPAKTPPAPKTPPSSGEPPKSGDRSGYSSP [synthetic peptide tau 171-200], for which the binding result in assay [4] is listed as “no binding (tested: peptide up to 200 µM)”.
